From paper PMC8835488, “Production and Biochemical Characterization of Dimeric Recombinant Gremlin-1” (International Journal of Molecular Sciences, 2022)

Columns and labels:
[1] = target: the molecule itself; test: non-reducing SDS-PAGE with anti-gremlin Western blot; IMAC-purified gremlin (250 mM imidazole eluate), SDS-PAGE without DTT; shows disulfide-bound dimer beside monomer
[2] = target: the molecule itself; test: non-reducing SDS-PAGE; bought 10xHis-tagged gremlin from murine myeloma cells, several batches (Figure S1); SDS-PAGE under reducing or non-reducing conditions

Row | Protein | dimer vs. monomer ratio [1] | stoichiometry N [1] | stoichiometry N [2]
1 | recombinant rat gremlin-1 with C-terminal hexa-histidine tag (pcDNA3-Gremlin-1-HisTag) (natural protein, UniProt O35793 25-184, looked up, N-glycosylated in part (glycosylated ~30–45%, non-glycosylated ~70–55% of the protein), gremlin-1, rat; secreted protein; the 0.8–0.9 M NaCl heparin-sepharose fractions hold the dimer; also called IMAC-purified gremlin; IMAC gremlin; source: HEK293T, transiently transfected, secreted into the supernatant; purified by IMAC (Ni2+ column), when indicated followed by heparin-sepharose chromatography; not shown: His6, C-terminal, kept) KKKGSQGAIPPPDKAQHNDSEQTQSPPQPGSRTRGRGQGRGTAMPGEEVLESSQEALHVTERKYLKRDWCKTQPLKQTIHEEGCNSRTIINRFCYGQCNSFYIPRHIRKEEGSFQSCSFCKPKKFTTMMVTLNCPELQPPTKKKRVTRVKQCRCISIDLD | ~20% | 2 | 
2 | 10xhis-tagged gremlin expressed in murine myeloma cells (recombinant human gremlin-1 purchased from R&D) (natural protein, UniProt O60565 25-184, looked up, gremlin-1, human; No catalogue number is printed; source: bought: R&D; expressed in murine myeloma cells, IMAC-purified) KKKGSQGAIPPPDKAQHNDSEQTQSPQQPGSRNRGRGQGRGTAMPGEEVLESSQEALHVTERKYLKRDWCKTQPLKQTIHEEGCNSRTIINRFCYGQCNSFYIPRHIRKEEGSFQSCSFCKPKKFTTMMVTLNCPELQPPTKKKRVTRVKQCRCISIDLD |  |  | 2
